The text below walks through data of PMC10641520 (The Journal of Biological Chemistry, 2023).

Series [1] deals with the molecule itself. Put plainly: AUC.
Series [2] deals with the molecule itself. Put plainly: AUC. The source holds these as a separate data set.

B1: Acinetobacter baumannii TIR domain protein (AbTir-TIR^wt, aa134-269) (domain or fragment, UniProt A0A009IHW8 134-269, looked up)
chain: EYDLFISHASEDKEDFVRPLAETLQQLGVNVWYDEFTLKVGDSLRQKIDSGLRNSKYGTVVLSTDFIKKDWTNYELDGLVAREMNGHKMILPIWHKITKNDVLDYSPNLADKVALNTSVNSIEEIAHQLADVILNR
B1: the stoichiometry N (in general, the number of molecules, sites or subunits per partner or assembly) in series [1] is 2. For the same protein, the Kd (as a rule, the free concentration of one partner at which half of the binding sites on the other are occupied at equilibrium, for simple one-to-one binding) in series [2] was determined as 1400 nM.
